Several values for one entry are separate records, joined by “and”; a condition that tells them apart may be missing. Equal values may be shown once.
Columns and labels:
[1] = biological target: purified monoclonal anti-hCG antibody (anti-hCG-A antibody, gift from Organon Technika); assay: ratio of affinity constants of hCG and of the oligopeptide for the antibody
[2] = biological target: purified monoclonal anti-hCG antibody (anti-hCG-A antibody, gift from Organon Technika); assay: fluorescence anisotropy displacement, non-linear curve fitting by Equation (6), 6 C

fold higher binding affinity than the oligopeptide [1]: 300 fold and 500 fold
Ka [2]: 9.4e+09 M⁻¹
Substance: human chorionic gonadotrophin (hCG), highly purified, intact (from UniProt P01215 25-116; P0DN86 21-165) (ligand)
